What was measured:
ZF-NB23 [1] = target: ZF-NB23
ZF-NB23 [2] = target: ZF-NB23; remark: listed apart in the source
ZF-NB23 [3] = target: ZF-NB23; remark: listed apart in the source

Chain of ZF-NB23 (heavy, as listed by the source): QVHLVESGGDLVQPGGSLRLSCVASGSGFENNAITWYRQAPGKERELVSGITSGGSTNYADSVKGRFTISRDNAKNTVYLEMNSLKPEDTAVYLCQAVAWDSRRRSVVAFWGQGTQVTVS

Question: For “recombinant trimeric SARS-CoV-2 spike protein (from UniProt P0DTC2 14-1273) (natural protein)”, which MDC (minimal detectable concentration of Spike in the ZF-NB23 / NB15-T7 RNAP sensor, 10% nasal swab sample) (ZF-NB23 [1]) is on record?
Answer: 40 pM

Question: And the MDC (minimal detectable concentration of Spike, trehalase / glucose read-out) (ZF-NB23 [2])?
Answer: 330 pM

Question: And the MDC (minimal detectable concentration of Spike in the fully de novo sensor) (ZF-NB23_D1)?
Answer: 33.3 nM

Question: What about the MDC (minimal detectable concentration of Spike in the fully de novo sensor) (NB15_C1-T7 RNAP) of the same substance?
Answer: 33.3 nM

Question: What about the MDC (minimal detectable concentration of Spike in the ZF-NB23 / NB15-T7 RNAP sensor) (ZF-NB23 [3]) of the same substance?
Answer: 13 pM
